From patent publication US20140087995A1 (published 2014)
Numbered stars: 1 amine (or outer) side, 2 acyl side, 3 side chain; on linkers, the order of the positions; unused ones are H or OH. Bridge positions count the residues as written; N and C are the ends. Side chains are listed from the residue outwards. Ends that are not written are not given here. * marks the point of attachment. C20 diacid = O=C(O)CCCCCCCCCCCCCCCCCCC(=O)*; γGlu = O=C(O)[C@H](CCC(=O)[*:2])N[*:1]

T1: human calcitonin receptor (human, UniProt P30988 25-474)
T1 sequence (looked up): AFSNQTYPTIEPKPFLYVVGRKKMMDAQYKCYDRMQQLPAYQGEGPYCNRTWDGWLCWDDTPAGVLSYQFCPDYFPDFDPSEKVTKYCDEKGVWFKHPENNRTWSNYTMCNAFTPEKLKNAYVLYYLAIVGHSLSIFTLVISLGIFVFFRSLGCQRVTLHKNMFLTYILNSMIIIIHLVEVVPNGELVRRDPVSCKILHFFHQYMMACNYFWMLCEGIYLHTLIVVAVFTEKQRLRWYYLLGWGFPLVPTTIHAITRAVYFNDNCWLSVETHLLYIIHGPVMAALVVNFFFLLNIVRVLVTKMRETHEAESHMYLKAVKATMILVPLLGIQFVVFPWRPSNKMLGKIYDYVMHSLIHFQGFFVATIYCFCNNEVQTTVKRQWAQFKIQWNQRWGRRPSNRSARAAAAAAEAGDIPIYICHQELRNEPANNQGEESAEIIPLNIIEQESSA

B1: N^ε1-[(4S)-4-carboxy-4-(19-carboxynonadecanoylamino)butanoyl]-[Arg17,Pro21,Pro27,Lys35]-h-amylin (peptide)
peptide: K([γGlu-C20 diacid])CNTATCATQRLANFLRHSSPNFGAIPSSTNVGSKTY-NH2
modifications: disulfide 2-7; N-terminus assumed
SMILES: CC[C@H](C)[C@H](NC(=O)[C@H](C)NC(=O)CNC(=O)[C@H](Cc1ccccc1)NC(=O)[C@H](CC(N)=O)NC(=O)[C@@H]1CCCN1C(=O)[C@H](CO)NC(=O)[C@H](CO)NC(=O)[C@H](Cc1c[nH]cn1)NC(=O)[C@H](CCCNC(=N)N)NC(=O)[C@H](CC(C)C)NC(=O)[C@H](Cc1ccccc1)NC(=O)[C@H](CC(N)=O)NC(=O)[C@H](C)NC(=O)[C@H](CC(C)C)NC(=O)[C@H](CCCNC(=N)N)NC(=O)[C@H](CCC(N)=O)NC(=O)[C@@H](NC(=O)[C@H](C)NC(=O)[C@@H]1CSSC[C@H](NC(=O)[C@@H](N)CCCCNC(=O)CC[C@H](NC(=O)CCCCCCCCCCCCCCCCCCC(=O)O)C(=O)O)C(=O)N[C@@H](CC(N)=O)C(=O)N[C@@H]([C@@H](C)O)C(=O)N[C@@H](C)C(=O)N[C@@H]([C@@H](C)O)C(=O)N1)[C@@H](C)O)C(=O)N1CCC[C@H]1C(=O)N[C@@H](CO)C(=O)N[C@@H](CO)C(=O)N[C@H](C(=O)N[C@@H](CC(N)=O)C(=O)N[C@H](C(=O)NCC(=O)N[C@@H](CO)C(=O)N[C@@H](CCCCN)C(=O)N[C@H](C(=O)N[C@@H](Cc1ccc(O)cc1)C(N)=O)[C@@H](C)O)C(C)C)[C@@H](C)O
notes: h-amylin derivative; disulfide bridge and C-terminal amide as told for human amylin; also called compound 35
B2: N^ε1-[(4S)-4-carboxy-4-[[(4S)-4-carboxy-4-(19-carboxynonadecanoylamino)butanoyl]amino]butanoyl]-[Asp14,Arg17,Pro21,Pro27,Arg35]-h-amylin (peptide)
peptide: K([γGlu-γGlu-C20 diacid])CNTATCATQRLADFLRHSSPNFGAIPSSTNVGSRTY-NH2
modifications: disulfide 2-7; N-terminus assumed
SMILES: CC[C@H](C)[C@H](NC(=O)[C@H](C)NC(=O)CNC(=O)[C@H](Cc1ccccc1)NC(=O)[C@H](CC(N)=O)NC(=O)[C@@H]1CCCN1C(=O)[C@H](CO)NC(=O)[C@H](CO)NC(=O)[C@H](Cc1c[nH]cn1)NC(=O)[C@H](CCCNC(=N)N)NC(=O)[C@H](CC(C)C)NC(=O)[C@H](Cc1ccccc1)NC(=O)[C@H](CC(=O)O)NC(=O)[C@H](C)NC(=O)[C@H](CC(C)C)NC(=O)[C@H](CCCNC(=N)N)NC(=O)[C@H](CCC(N)=O)NC(=O)[C@@H](NC(=O)[C@H](C)NC(=O)[C@@H]1CSSC[C@H](NC(=O)[C@@H](N)CCCCNC(=O)CC[C@H](NC(=O)CC[C@H](NC(=O)CCCCCCCCCCCCCCCCCCC(=O)O)C(=O)O)C(=O)O)C(=O)N[C@@H](CC(N)=O)C(=O)N[C@@H]([C@@H](C)O)C(=O)N[C@@H](C)C(=O)N[C@@H]([C@@H](C)O)C(=O)N1)[C@@H](C)O)C(=O)N1CCC[C@H]1C(=O)N[C@@H](CO)C(=O)N[C@@H](CO)C(=O)N[C@H](C(=O)N[C@@H](CC(N)=O)C(=O)N[C@H](C(=O)NCC(=O)N[C@@H](CO)C(=O)N[C@@H](CCCNC(=N)N)C(=O)N[C@H](C(=O)N[C@@H](Cc1ccc(O)cc1)C(N)=O)[C@@H](C)O)C(C)C)[C@@H](C)O
notes: h-amylin derivative; disulfide bridge and C-terminal amide as told for human amylin; also called compound 52

Target: T1, human calcitonin receptor
Assay: cell-based or functional assay

hCTR funct. EC50 [nM] | Binder
5.46 | B1
14.1 | B2
